In article PMC10836398, “Structural flexibility of Toscana virus nucleoprotein in the presence of a single-chain camelid antibody” (Acta Crystallographica. Section D, Structural Biology, 2024):

Target: T1, Toscana virus nucleoprotein (Toscana virus, UniProt P21701)
T1 construct: Nucleoprotein (N) of Toscana virus, coded by the S segment; Monomeric fractions of N were pooled for complex formation; also called TOSV N; N protein; source: E. coli, purified under non-denaturing conditions (1 M NaCl and 3 M urea in the lysis buffer to remove nucleic acids)
Assay: crystal structure; N–VHH complex at 13 mg/ml, hanging drop, 293 K, 0.5 M MES pH 6.5, 25% PEG 2000; space group P4(1)2(1)2, 3.8 Å
Settings: both partners purified

T1 sequence (P21701 2-253): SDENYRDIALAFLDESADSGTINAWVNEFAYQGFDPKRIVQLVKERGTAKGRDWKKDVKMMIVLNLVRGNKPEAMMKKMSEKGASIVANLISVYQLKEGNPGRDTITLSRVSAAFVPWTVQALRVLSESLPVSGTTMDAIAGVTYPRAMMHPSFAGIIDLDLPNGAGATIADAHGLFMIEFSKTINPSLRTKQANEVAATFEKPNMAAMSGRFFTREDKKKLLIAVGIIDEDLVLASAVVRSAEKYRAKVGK

B1: single-chain camelid antibody (VHH) targeting the TOSV N protein (VHH)
VHH: QVQLVESGGGSVQAGGSLRLSCAASGDAGRRYCMAWFRQAPGKEREGVAFISTANGRTDYVDSVKGRFTISQNSAKNTVYLQMNSLKPEDTAMYYCASRGYGYLSCSSYSLAAYNYWGQGTQVTVSS
notes: Selected by phage display from a llama immunised with TOSV N; The clone has no printed name; also called nanobody; source: E. coli WK6, periplasmic extract, purified (IMAC)
binding result: binds
